We go through five molecules from paper PMC12015215, “Structural basis of human Mediator recruitment by the phosphorylated transcription factor Elk-1” (Nature Communications, 2025).

Experiment [1] deals with T1, BAP-MED23-6His, biotinylated (human, UniProt Q9ULK4-1 1-1368, biotin on the BAP tag (biotinylated during expression)).
T1 construct: Mediator complex subunit MED23, human, isoform 1 (NM_004830.3); Captured by its biotin on a streptavidin SA chip; also called biotinylated MED23; MED23 with a BAP tag; source: insect cells (pFastBac Dual with BirA biotin ligase), purified by the same procedure as MED23-6His; not shown: BAP (biotin acceptor peptide), N-terminal, kept
T1 sequence: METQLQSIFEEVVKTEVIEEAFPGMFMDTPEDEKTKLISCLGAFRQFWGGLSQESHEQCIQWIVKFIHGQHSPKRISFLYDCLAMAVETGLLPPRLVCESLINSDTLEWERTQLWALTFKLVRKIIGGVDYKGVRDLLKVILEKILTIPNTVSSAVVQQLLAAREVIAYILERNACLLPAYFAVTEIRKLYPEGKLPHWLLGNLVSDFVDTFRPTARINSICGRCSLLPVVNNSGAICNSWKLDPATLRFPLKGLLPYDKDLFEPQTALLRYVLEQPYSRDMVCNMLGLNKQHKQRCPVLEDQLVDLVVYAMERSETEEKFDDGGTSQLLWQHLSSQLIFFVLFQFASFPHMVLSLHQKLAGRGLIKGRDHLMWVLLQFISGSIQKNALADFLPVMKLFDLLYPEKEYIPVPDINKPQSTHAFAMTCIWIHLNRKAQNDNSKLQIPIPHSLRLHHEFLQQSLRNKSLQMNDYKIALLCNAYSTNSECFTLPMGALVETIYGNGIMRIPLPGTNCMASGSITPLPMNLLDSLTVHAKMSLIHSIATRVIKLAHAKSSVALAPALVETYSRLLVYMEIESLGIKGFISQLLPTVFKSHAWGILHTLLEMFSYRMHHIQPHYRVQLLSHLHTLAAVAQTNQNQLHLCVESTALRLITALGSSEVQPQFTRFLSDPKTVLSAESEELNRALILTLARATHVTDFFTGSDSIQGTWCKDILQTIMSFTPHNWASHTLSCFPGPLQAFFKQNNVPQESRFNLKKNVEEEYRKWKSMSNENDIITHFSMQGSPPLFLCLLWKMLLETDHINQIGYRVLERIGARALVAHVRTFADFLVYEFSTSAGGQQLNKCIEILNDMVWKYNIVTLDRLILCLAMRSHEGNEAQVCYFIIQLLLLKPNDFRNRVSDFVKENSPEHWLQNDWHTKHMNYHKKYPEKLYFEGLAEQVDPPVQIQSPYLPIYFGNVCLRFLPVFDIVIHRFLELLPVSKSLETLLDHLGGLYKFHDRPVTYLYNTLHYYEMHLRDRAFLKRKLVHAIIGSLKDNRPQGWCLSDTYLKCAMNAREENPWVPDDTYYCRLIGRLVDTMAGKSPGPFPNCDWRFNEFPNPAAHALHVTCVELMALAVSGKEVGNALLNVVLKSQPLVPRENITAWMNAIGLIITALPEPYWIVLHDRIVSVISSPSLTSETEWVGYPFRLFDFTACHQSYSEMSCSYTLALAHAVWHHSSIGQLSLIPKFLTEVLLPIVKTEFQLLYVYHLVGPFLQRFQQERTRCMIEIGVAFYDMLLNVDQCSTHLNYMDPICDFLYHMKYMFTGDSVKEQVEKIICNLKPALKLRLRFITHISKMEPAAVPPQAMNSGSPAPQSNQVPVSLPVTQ
The experiment can be described thus: SPR; BIAcore T200; biotinylated BAP-MED23 captured on a streptavidin SA chip (2000-3000 RU), PBS+ buffer; GST-fused Elk-1 derivatives injected at 0.25-4 µM, single-cycle kinetics in triplicate, 1:1 Langmuir model.

Experiment [2] deals with T2, MED23-6His (human Mediator complex subunit MED23, wild type) (human, UniProt Q9ULK4-1 1-1368).
T2 construct: Mediator complex subunit MED23, human, isoform 1 (NM_004830.3); cloned before a rhinovirus 3C protease site followed by a 6xHis tag; The stored protein is named MED23-6His; cleavage by 3C protease is not reported; In the functional rows MED23 WT was expressed from PIN510A-1 or FC550A-1 plasmids in MED23-/- MEFs; also called MED23 WT; recombinant MED23; source: ExpiSF9 insect cells (baculovirus), …
T2 sequence: T1 sequence
The experiment is described as follows: pull-down; 4 µg GST constructs immobilised on GST-Trap agarose; 20 µg recombinant MED23 or MED23 G382F, 90 min at 4 °C in PBS-casein; SDS-PAGE, Coomassie. The note with it: both partners purified.

Where two headings read alike, the source gives them in different places.

“GST-fused Elk-1^2P (T368P/S389P) (308–401)-6His, phosphorylated at T368 and S389 (from UniProt P19419 308-401) (domain or fragment)”: the Kd in experiment [1] came to 0.075 µM.
“GST-fused Elk-1^1P (S383P) (308–401)-6His, phosphorylated only at S383 (from UniProt P19419 308-401) (domain or fragment)”: the dissociation constant Kd in experiment [1] came to 0.081 µM.
Same read-out and setting: under “GST-fused Elk-1^2P (T368P/S383P) (308–401)-6His, phosphorylated at T368 and S383 (from UniProt P19419 308-401) (domain or fragment)” stands 0.042 µM.

B1: phosphorylated GST-Elk-1^8P (308–428)-6His (domain or fragment, UniProt P19419 308-428, looked up)
chain: SQPQKGRKPRDLELPLSPSLLGGPGPERTPGSGSGSGLQAPGPALTPSLLPTHTLTPVLLTPSSLPPSIHFWSTLSPIAPRSPAKLSFQFPSSGSAQVHIPSISVDGLSTPVVLSPGPQKP
modifications: phosphorylated in E. coli by co-expressed ERK2-GOF/MEK1DD; which of the eight S/T-P sites carry phosphate is not stated
notes: In pGEX-6P1; also called Elk-1 TAD; Gal4-Elk-1^8P (308–428) in the reporter assays; source: E. coli BL21 (DE3), co-expressed with MBP-ERK2-GOF/MEK1DD, purified (GSTrap 4B and/or HisTap HP); not shown: GST, N-terminal, kept
Take B1: the binding result in experiment [2] was “binds”.

B2: GST-fused Elk-1^3P (308–401)-6His, phosphorylated at T368, S383 and S389 (domain or fragment, UniProt P19419 308-401, looked up)
chain: SQPQKGRKPRDLELPLSPSLLGGPGPERAPGSGSGSGLQAPGPALAPSLLPTHTLAPVLLTPSSLPPSIHFWSTLSPIAPRSPAKLSFQFPSSG
modifications: phosphorylated at T368, S383 and S389 by co-expressed ERK kinase
notes: In pGEX-4T1 (synthesised by Genscript); also called triply phosphorylated Elk-1; source: E. coli BL21 (DE3), co-expressed with MBP-ERK2-GOF/MEK1DD, purified (GSTrap 4B and/or HisTap HP)
Turning to B2, binding in experiment [1] (both partners purified) was characterised by a dissociation constant (Kd) of 0.06 µM.

What is called Kd is a measure of binding affinity in units of concentration. High values mean lower affinity, low ones higher affinity.
